According to patent publication US20160040149A1, “Compositions Having Dicamba Decarboxylase Activity and Methods of Use” (priority 2013, published 2016):

How the values were obtained:
[1] = Dicamba decarboxylase activity / product analysis with purified His-tag protein (14C assay and product detection of Example 1); format: biochemical; conditions: for dicamba decarboxylase activity relative to parent sequence: computationally designed variants; for reaction products detected: purified protein, dicamba substrate; for dicamba decarboxylase activity: statement of the description
Method: To obtain purified protein for activity assays, IPTG-induced cells were harvested by centrifugation at 7,000 rpm for 10 mins Cell pellet from 50 mL of cell culture was frozen and thawed twice and then lysed in 8004 lysis buffer consisting of 50 mM potassium phosphate buffer (pH7.0), 50 μM ZnSO4, 5% EG, 50 mM KCl, 1 mM DTT, 0.2 mg/ml lysozyme, 1/200 protease inhibitor cocktail (EMD set3, EDTA free), and 1/2,000 endonuclease. Lysate was then centrifuged at 13,000 rpm for 45 min at 4° C. Supernatant was loaded onto 200 μL Ni-NTA columns pre-equilibrated with 10 mM His Buffer containing 25 mM potassium phosphate buffer pH7, 50 μM ZnSO4, 5% EG, 200 mM KCl, and 10 mM histidine. The columns were let sit at 4° C. until the entire supernatant passed through. Each column was then washed with 200 ul 10 mM His Buffer twice and then 4 times with 800 ul loading buffer consisting of 25 mM potassium phosphate buffer pH7, 50 μM ZnSO4, 5% EG, 200 mM KCl. Protein was eluted with 1504 of Elution Buffer consisting of 25 mM potassium phosphate buffer pH7, 50 μM ZnSO4, 5% EG, 100 mM KCl, 100 mM histidine, 10% glycerol. The protein concentration was measured by Bradford assay. Purified protein was used for dicamba decarboxylase activity measurement as described in Example 1. Enzyme kinetic characterization of selected dicamba decarboxylases was determined through GC/MS measurement of 2,5-DCP or PEPC coupled assay as described in Example 1.

[2] = Saturation mutagenesis of SEQ ID NO:109: dicamba decarboxylation activity of point mutants (CO2 released), fold of backbone (Tables 7, 8, Megatable 1); conditions: decarboxylation activity (CO2 released) of point mutant vs unmutated backbone protein
[3] = DNA shuffling libraries: 14CO2 capturing assay in 384-well format, fold activity of backbone (Megatable 2); conditions: relative to backbone SEQ ID NO: 133 (DDEC0201)

B1: 111 (protein)
chain: MAQGKVALEEHFAIPETLQDSMGFVPGDYWKELMHRLLDIQDTRLKLMDAHGIETMILSLNAPAVQAIPDRRKAIEIARRANDVLAEECAKRPDRFLAFAALPLQDPDAATEELQRCVNDLGFVGALVNGFSQEGDGQTPLYYDLPQYRPFWGEVEKLDVPFYLHPRNPLPQDSRIYDGHPWLLGPTWAFAQETAVHALRLMASGLFDEHPRLNIILGHMGEGLPYMMWRIDHRMAWIKLPPRYPAKRRFMDYFNENFHITTSGNFRTQTLIDAILEIGADRILFSTDWPFENIDHASDWFNATSIAEADRVKIGRTNARRLFKLDGA
modifications: Dicamba decarboxylase variant clone: DC.4.112
- dicamba decarboxylase activity relative to parent sequence [1]: displays an increase in dicamba decarboxylase activity
- reaction products detected [1]: three major products (CO2, 4-chloro-3-methoxy phenol, and 2,5-DCP) detected
- Fold Activity ([2]; backbone SEQ ID NO: 109): 1.2 fold

B2: 112 (protein)
chain: MAQGKVALEEHFAIPETLQDSAGFVPGDYWKELVHRLLDIQDTRLKLMDAHGIETMILSLNAPAVQAIPDRRKAIEIARRANDVLAEECAKRPDRFLAFAALPLQDPDAATEELQRCVNDLGFVGALVNGFSQEGDGQTPLYYDLPQYRPFWGEVEKLDVPFYLHPRNPLPQDSRIYDGHPWLLGPTWAFAQETAVHALRLMASGLFDEHPRLNIILGHMGEGLPYMMWRIDHRVAWVKLPPRYPAKRRFMDYFNENFHITTSGNFRTQTLIDAILEIGADRILFSTDWPFENIDHASDWFNATSIAEADRVKIGRTNARRLFKLDGA
modifications: Dicamba decarboxylase variant clone: DC.4.113
- dicamba decarboxylase activity relative to parent sequence [1]: displays an increase in dicamba decarboxylase activity
- reaction products detected [1]: three major products (CO2, 4-chloro-3-methoxy phenol, and 2,5-DCP) detected
- Fold Activity ([2]; backbone SEQ ID NO: 109): 1.2 fold

B3: 113 (protein)
chain: MAQGKVALEEHFAIPETLQDSAGFVPGDYLKELFHRLLDIQDTRLKLMDAHGIETMILSLNAPAVQAIPDRRKAIEIARRANDVLAEECAKRPDRFLAFAALPLQDPDAATEELQRCVNDLGFVGALVNGFSQEGDGQTPLYYDLPQYRPFWGEVEKLDVPFYLHPRNPLPQDSRIYDGHPWLLGPTWAFAQETAVHALRLMASGLFDEHPRLNIILGHMGEGLPYMMWRIDHRVAWVKLPPRYPAKRRFMDYFNENFHITTSGNFRTQTLIDAILEIGADRILFSTDWPFENIDHASDWFNATSIAEADRVKIGRTNARRLFKLDGA
modifications: Dicamba decarboxylase variant clone: DC.4.114
- dicamba decarboxylase activity relative to parent sequence [1]: displays an increase in dicamba decarboxylase activity
- reaction products detected [1]: three major products (CO2, 4-chloro-3-methoxy phenol, and 2,5-DCP) detected
- Fold Activity ([2]; backbone SEQ ID NO: 109): 1.4 fold

B4: 95 (protein, listed as Pseudomonas fluorescens)
chain: MAKKPRIDMHSHFFPRISEQEAAKFDANHAPWLQVSAKGDTGSIMMGKNNFRPVYQALWDPAFRIEEMDAQGVDVQVTCATPVMFGYTWEANKAAQWAERMNDFALEFAAHNPQRIKVLAQVPLQDLDLACKEASRAVAAGHLGIQIGNHLGDKDLDDATLEAFLTHCANEDIPILVHPWDMMGGQRMKKWMLPWLVAMPAETQLAILSLILSGAFERIPKSLKICFGHGGGSFAFLLGRVDNAWRHRDIVREDCPRPPSEYVDRFFVDSAVFNPGALELLVSVMGEDRVMLGSDYPFPLGEQKIGGLVLSSNLGESAKDKIISGNASKFFNINV
- dicamba decarboxylase activity [1]: Neither of the native proteins have dicamba decarboxylase activity
- Fold Activity ([2]; backbone SEQ ID NO: 109): 1.4 fold

B5: 100 (protein, listed as Reinekea blandensis)
chain: MAIIDCHGHYTTTPKGVEDYRNAQKAAVAKDPSFKGEKGQVVVSDDEIRESIENNQLKMQRERGTDLTIFSPRASWMGHHIGNEYTSQFWTEHQNDLIRRVCDLFPKNFAPVAQLPQSPGVDPAKSVPEIVRTVEQMGFIGINLNPDPSGGYWKDTSLADRAFYPIYEKMVEYDIPAMIHVSAACNDCFHTTGSHYLGADTTGFQQLIMSDVFKDFPSLKIIIPHGGGAVPYHWGRFRGLMQDQGYAPLEESALKNIYFDTCVYHQRGIDLLLDIVPTQNILFASEMIGAVRGIDPETGHNFDDTKRYIDNNTALNAEEKAMIFEGNARRVFSRLKTD
- dicamba decarboxylase activity [1]: Neither of the native proteins have dicamba decarboxylase activity
- Fold Activity ([2]; backbone SEQ ID NO: 109): 2.5 fold

B6: 265 (protein)
chain: MAQGKVALEEHFAIPETLNDSAGFVPGDYWKELQHRLLDIQDTRLKLMDAHGIETMILSLAAPAVQAIPDRRKAIEIARRANDFLAEECAKRPDRFLAFAALPLQDPDAATEELQRTVNDLGFVGALVNGFSQEGDGQTPLYYDLPQYRPFWGEVEKLDVPFYLHPRNPLPQDSRIYDGHPWLLGPTWAFAQETAVHALRLMASGLFDEHPRLNIILGHMGEGLPYMMYRIDHRIAWVKLPPRYPAKRRFMDYFNENFHITTSGNFRTQTLIDAILEIGADRILFSTDWPFENIDHAADWFNATSIAEADRLKIGRTNARRLFKLDLD
modifications: Dicamba decarboxylase variant
- Fold Activity ([2]; backbone SEQ ID NO: 109): 1.8 fold
- Fold Activity [3]: 1.0 fold

B7: 266 (protein)
chain: MAQGKVALEEHFAIPETLQDSAGFVPGDYWKELQHRLLDIQDTRLKLMDAHGIETMILSLAAPAVQAIPDRRKAIEIARRANDFLAEECAKRPDRFLAFAALPLQDPDAATEELQRCVNTLGFVGALVNGFSQEGDGQTPLYYDLPQYRPFWGEVEKLDVPFYLHPRNPLPQDSRIYDGHPWLLGPTWAFAQETAVHALRLMASGLFDEHPRLNIILGHLGEGLPYMMYRIDHRIAWVHEPPRYPAKRRFMDYFNENFHITTSGNFRTQTLIDAILEIGADRILFSTDWPFENIDHAADWFNATSIAEADRLKIGRTNARRLFKLDGA
modifications: Dicamba decarboxylase variant
- Fold Activity ([2]; backbone 509): 1.2 fold
- Fold Activity [3]: 1.3 fold

B8: 267 (protein)
chain: MAQGKVALEEHFAIPETLQDSAGFVPGDYWKELQHRLLDIQDTRLKLMDAHGIETMILSLAAPAVQAIPDRVQAIEIARRANDFLAEECAKRPDRFLAFAALPLQDPDAATEELQRCVNDLGFVGALVNGFSQEGDGQTPLYYDLPQYRPFWGEVEKLDVPFYLHPRNPLPQDSRIYDGHPWLLGPTWAFAQETAVHALRLMASGLFDEHPRLNIILGHMGEGLPYMMYRIDHRIAWVHEPPRYPAKRRFMDYFNENFHITTSGNFRTQTLIDAILEIGADRILFSTDWPFENIDHAADWFNATSIAEADRVKIGRTNARRLFKLDGD
modifications: Dicamba decarboxylase variant
- Fold Activity ([2]; backbone 509): 1.0 fold
- Fold Activity [3]: 2.2 fold

B9: 268 (protein)
chain: MAQGKVALEEHFAIPETLQDSAGFVPGDYWKELQHRLLDIQDTRLKLMDAHGIETMILSLAAPAVQAIPDRRKAIEIARRANDFLAEECAKRPDRFLAFAALPLQDPDAASEELQRCVNTLGFVGALVNGFSVEGDGQTPLYYDLPQYRPFWGEVEKLDVPFYLHPRNPLPQDSRIYDGHPWLLGPTWAFAQETAVHALRLMASGLFDEHPRLNIILGHMGEGLPYMMYRIDHRIAWVHEPPRYPAKRRFMDYFNENFHITTSGNFRTQTLIDAILEIGADRILFATDWPFENIDHAADWFNATSIAEADRVKIGRTNARRLFKLDLD
modifications: Dicamba decarboxylase variant
- Fold Activity ([2]; backbone 509): 1.1 fold
- Fold Activity [3]: 1.3 fold

B10: 269 (protein)
chain: MAQGKVALEEHFAIPETLQDSAGFVPGDYWKELQHRLLDIQDTRLKLMDAHGIETMILSLAAPAVQAIPDRRKAIEIARRANDFLAEECAKRPDRFLAFAALPLQDPDAATEELQRCVNTLGFVGALVNGFSQEGDGQTPLYYDLPQYRPFWGEVEKLDVPFYLHPRNPLPQDSRIYDGHPWLLGPTWAFAQETAVHALRLMASGLFDEHPRLNIILGHMGEGLPYMMYRIDHRIAWVKLPPRYPAKRRFMDYFLENFHITTSGNFRTQTLIDAILEIGADRILFSTDWPFENIDHAADWFNATSIAEADRVKIGRTNARRLFKLDGA
modifications: Dicamba decarboxylase variant
- Fold Activity ([2]; backbone 509): 1.1 fold
- Fold Activity [3]: 1.1 fold
